Sequences and labels used below:
B1: scFv; the commonest letter at each place (parent)
chain 1: EVKLDETGGGLVQPGRPMKLSCVASGFTFSDYWMNWVRQSPEKGLEWVAQIRNKPYNYETYYSDSVKGRFTISRDDSKSSVYLQMNNLRVEDMGIYYCTGSYYGMDYWGQGTSVTVS
chain 2: DVVMTQTPLSLPVSLGDQASISCRSSQSLVHSNGNTYLRWYLQKPGQSPKVLIYKVSNRFSGVPDRFSGSGSGTDFTLKISRVEAEDLGVYFCSQSTHVPWTFGGGTKLEIK

Variants of B1 are the subject of the data set “fluorescein”. Description: Kd (Tite-Seq). As to conditions: with fluorescein; format: scFv 4-4-20, heavy + light.
Data set [1] covers variants of B1. Description: yeast surface expression (ratio to wild type); higher = more expressed. As to conditions: format: scFv 4-4-20, heavy + light.

Bounds are passed on as bounds.

chain 1 T28C S30K: in the data set with fluorescein, the Kd stood at 0.00104 µM. The yeast surface expression in data set [1] turned out to be 0.943.
For chain 1 Y102S M105N, in that order: 0.0038 µM and 1.31.
For chain 1 S30Q V37E, the Kd with fluorescein is ≥ 10 µM. The yeast surface expression in data set [1] was found to be 0.892.
Consider chain 1 S101G Y103C, for which the Kd with fluorescein is ≥ 10 µM. Further, the yeast surface expression in data set [1] came out at 0.678.
For the variant chain 1 S101E M105V D106P, in the data set with fluorescein, the Kd was ≥ 10 µM. Further, the yeast surface expression in data set [1] was 0.387.
For the variant chain 1 T28L S30C, the Kd with fluorescein came out at 0.00158 µM. In data set [1], the yeast surface expression worked out at 0.839.
Take chain 1 Y102W Y107W: the Kd in the data set with fluorescein turned out to be 0.00158 µM. Besides, in data set [1], the yeast surface expression came to 0.797.
For chain 1 F29Y V37L, in that order: ≥ 10 µM and 0.669.
For chain 1 Y102M D106A W108A the same measures were ≥ 10 µM and 0.612.
For chain 1 G100W G104I the same measures were ≥ 10 µM and 0.359.
Regarding chain 1 Y102G G109K, the Kd with fluorescein was ≥ 10 µM. Besides, the yeast surface expression in data set [1] is 0.336.
On to chain 1 Y102S D106W, for which the Kd with fluorescein was ≥ 10 µM. For the same variant, in data set [1], the yeast surface expression came to 0.385.
For the variant chain 1 F29V W36S, the Kd with fluorescein is ≥ 10 µM. In data set [1], the yeast surface expression came out at 0.52.
For chain 1 F29V W36L, in that order: ≥ 10 µM and 0.332.
For chain 1 D31L Y32H N35V the same measures were ≥ 10 µM and 0.343.
For chain 1 G100H D106C, in that order: ≥ 10 µM and 0.222.
Turning to chain 1 S101I Y102L, in the data set with fluorescein, the Kd was ≥ 10 µM. For the same variant, in data set [1], the yeast surface expression amounted to 0.376.
For chain 1 M105C D106E the same measures were ≥ 10 µM and 0.902.
For chain 1 M105H Y107G the same measures were ≥ 10 µM and 0.412.
For the variant chain 1 G100E S101V, the Kd in the data set with fluorescein is ≥ 10 µM. Besides, the yeast surface expression in data set [1] is 0.225.
For chain 1 W33R V37D the same measures were 0.205 µM and 1.19.
For chain 1 F29D Y32K W33Y, in that order: 6.61 µM and 1.18.
For chain 1 Y107W G109K the same measures were ≥ 10 µM and 0.336.
For the variant chain 1 Y32R W33M, the Kd in the data set with fluorescein was ≥ 10 µM. Also, the yeast surface expression in data set [1] worked out at 0.809.
For chain 1 M34G N35Q, in that order: ≥ 10 µM and 0.503.
For chain 1 G100W Y107D G109L the same measures were ≥ 10 µM and 0.227.
For chain 1 S101C M105Y Y107D, in that order: ≥ 10 µM and 0.281.
In the case of chain 1 D31F W33I, the Kd with fluorescein is ≥ 10 µM. In data set [1], the yeast surface expression is 0.487.
For chain 1 M34I N35W, in that order: ≥ 10 µM and 0.41.
For chain 1 G100N G104N, in that order: ≥ 10 µM and 0.347.
With chain 1 S30K V37A, the Kd in the data set with fluorescein is 0.0272 µM. Also, the yeast surface expression in data set [1] was 0.745.
For chain 1 Y103I W108C, in that order: 3.74 µM and 0.359.
For chain 1 T28C Y32W, in that order: ≥ 10 µM and 0.802.
For chain 1 Y107N G109K, the Kd with fluorescein was ≥ 10 µM. Moreover, in data set [1], the yeast surface expression was 0.306.
On to chain 1 Y107N G109S, for which, in the data set with fluorescein, the Kd stood at 0.0391 µM. Moreover, the yeast surface expression in data set [1] turned out to be 0.836.
For chain 1 Y107A G109L, in that order: ≥ 10 µM and 0.218.
For chain 1 Y32L W36Y the same measures were 3.74 µM and 0.682.
For the variant chain 1 G100R G104V M105S, the Kd with fluorescein was ≥ 10 µM. For the same variant, the yeast surface expression in data set [1] is 0.211.
With chain 1 S101W G109T, the Kd in the data set with fluorescein is ≥ 10 µM. In addition, the yeast surface expression in data set [1] came to 0.212.
For the variant chain 1 M105D G109F, the Kd in the data set with fluorescein was ≥ 10 µM. Further, in data set [1], the yeast surface expression is 0.218.
As to chain 1 M105F Y107S G109S, the Kd with fluorescein is ≥ 10 µM. For the same variant, in data set [1], the yeast surface expression worked out at 0.81.
On to chain 1 Y102G Y107F W108K, for which, in the data set with fluorescein, the Kd is ≥ 10 µM. The yeast surface expression in data set [1] came out at 0.71.
For chain 1 Y102P G104Y W108S, in that order: ≥ 10 µM and 0.379.
For chain 1 S101C Y103V D106I, in that order: ≥ 10 µM and 0.168.
Consider chain 1 W33G W36I, for which the Kd with fluorescein was ≥ 10 µM. Also, the yeast surface expression in data set [1] was 0.622.
For chain 1 S30E W33K, in that order: ≥ 10 µM and 0.771.
For chain 1 G100H S101E the same measures were ≥ 10 µM and 0.4.
As for chain 1 W108N G109P, in the data set with fluorescein, the Kd was ≥ 10 µM. For the same variant, the yeast surface expression in data set [1] came to 0.396.
For chain 1 G100R Y102I the same measures were ≥ 10 µM and 0.483.
For chain 1 S30K N35I, in that order: ≥ 10 µM and 0.879.
For chain 1 G104E D106A, in the data set with fluorescein, the Kd is ≥ 10 µM. In data set [1], the yeast surface expression came to 0.657.
For chain 1 Y102A Y103K G109C, in that order: ≥ 10 µM and 0.237.
For the variant chain 1 G100L G104Q W108M, the Kd in the data set with fluorescein is ≥ 10 µM. For the same variant, the yeast surface expression in data set [1] is 0.343.
For chain 1 Y32E W36H, in that order: ≥ 10 µM and 0.342.
For chain 1 T28P M34S, the Kd with fluorescein is 0.0154 µM. The yeast surface expression in data set [1] was found to be 0.95.
For chain 1 Y103L D106H G109F the same measures were ≥ 10 µM and 0.0981.
For chain 1 F29D D31E, in that order: ≥ 10 µM and 1.01.
For chain 1 S30Y N35C, in that order: ≥ 10 µM and 0.686.
In the case of chain 1 G100I Y103F, the Kd in the data set with fluorescein is ≥ 10 µM. The yeast surface expression in data set [1] is 0.932.
chain 1 F29G Y32Q: in the data set with fluorescein, the Kd is ≥ 10 µM. The yeast surface expression in data set [1] was determined as 0.991.
For chain 1 Y32C M34T, in that order: ≥ 10 µM and 0.664.
For the variant chain 1 Y32C M34P, the Kd with fluorescein was ≥ 10 µM. The yeast surface expression in data set [1] was found to be 0.562.
For chain 1 M34N N35V, in that order: ≥ 10 µM and 0.505.
For chain 1 Y32G M34C, in that order: ≥ 10 µM and 0.676.
For chain 1 S30M N35M, in that order: ≥ 10 µM and 0.654.
With chain 1 G100K G104C, the Kd in the data set with fluorescein is 4.6 µM. In data set [1], the yeast surface expression amounted to 0.182.
For chain 1 G104V Y107I the same measures were ≥ 10 µM and 0.443.
For chain 1 W108Q G109Q, in that order: ≥ 10 µM and 0.278.
On to chain 1 M34S W36A, for which the Kd in the data set with fluorescein is ≥ 10 µM. Also, in data set [1], the yeast surface expression was found to be 0.437.
For chain 1 W33Q W36V, in that order: ≥ 10 µM and 0.361.
For chain 1 T28E V37T, in that order: 0.00493 µM and 0.693.
For chain 1 Y102H M105T the same measures were ≥ 10 µM and 0.972.
For chain 1 D31H Y32F, the Kd with fluorescein was 0.00194 µM. Further, the yeast surface expression in data set [1] was 0.801.
Take chain 1 G100N D106N: the Kd with fluorescein is ≥ 10 µM. Moreover, the yeast surface expression in data set [1] amounted to 0.287.
In the case of chain 1 G100N D106Y, in the data set with fluorescein, the Kd is ≥ 10 µM. Also, the yeast surface expression in data set [1] amounted to 0.146.
Turning to chain 1 S101H Y107R, the Kd with fluorescein is ≥ 10 µM. The yeast surface expression in data set [1] was 0.581.
For chain 1 G100N Y102D G109M, in that order: ≥ 10 µM and 0.159.
chain 1 F29Y N35W: in the data set with fluorescein, the Kd was ≥ 10 µM. Besides, the yeast surface expression in data set [1] worked out at 0.0981.
For the variant chain 1 S30M Y32H, the Kd with fluorescein is 0.0729 µM. Also, the yeast surface expression in data set [1] stood at 0.872.
For chain 1 S101Q M105S, in that order: ≥ 10 µM and 0.853.
For chain 1 Y103W G104P the same measures were ≥ 10 µM and 1.
For chain 1 T28G W36N the same measures were ≥ 10 µM and 0.456.
In the case of chain 1 M105Q G109Y, in the data set with fluorescein, the Kd was ≥ 10 µM. In data set [1], the yeast surface expression is 0.231.
Consider chain 1 F29D Y32C, for which, in the data set with fluorescein, the Kd was ≥ 10 µM. Also, in data set [1], the yeast surface expression worked out at 0.924.
Consider chain 1 T28M V37K, for which the Kd in the data set with fluorescein was ≥ 10 µM. Moreover, the yeast surface expression in data set [1] stood at 0.399.
For chain 1 Y102Q G104L W108S the same measures were ≥ 10 µM and 0.348.
For chain 1 S101F M105G, in that order: ≥ 10 µM and 0.559.
As to chain 1 S101Y Y103N D106L, the Kd with fluorescein was ≥ 10 µM. In addition, the yeast surface expression in data set [1] is 0.957.
With chain 1 S101L G109I, the Kd with fluorescein was ≥ 10 µM. Also, the yeast surface expression in data set [1] was found to be 0.297.
For chain 1 Y103S G109T, in that order: ≥ 10 µM and 0.469.
For chain 1 N35L W36R the same measures were ≥ 10 µM and 0.352.
For chain 1 G104T Y107I W108Y, in that order: ≥ 10 µM and 0.224.
With chain 1 S101R Y103K, the Kd with fluorescein is ≥ 10 µM. Further, the yeast surface expression in data set [1] worked out at 0.984.
For chain 1 F29N S30P M34H the same measures were ≥ 10 µM and 0.781.
For chain 1 S101I Y103T W108D the same measures were ≥ 10 µM and 0.293.
For chain 1 S101H, in that order: ≥ 10 µM and 0.737.
chain 1 Y32H M34Q: in the data set with fluorescein, the Kd is ≥ 10 µM. Moreover, the yeast surface expression in data set [1] amounted to 0.862.
For chain 1 S101Q Y102D W108I the same measures were ≥ 10 µM and 0.495.
For chain 1 G100L W108Q the same measures were ≥ 10 µM and 0.477.
For the variant chain 1 N35D, the Kd in the data set with fluorescein was ≥ 10 µM. In addition, the yeast surface expression in data set [1] is 0.922.
For chain 1 N35V the same measures were ≥ 10 µM and 0.596.
For chain 1 G104F Y107Q, in that order: ≥ 10 µM and 0.401.
For chain 1 S30A W33N, in that order: ≥ 10 µM and 0.914.
Regarding chain 1 F29V M34E, the Kd in the data set with fluorescein was ≥ 10 µM. Further, the yeast surface expression in data set [1] was determined as 0.715.
For chain 1 W33C M34K the same measures were ≥ 10 µM and 0.774.
For chain 1 F29N S30T M34E the same measures were 0.311 µM and 1.73.
For chain 1 S101W Y103R G104S the same measures were ≥ 10 µM and 0.468.
On to chain 1 M34C V37I, for which the Kd with fluorescein came out at 0.00708 µM. Also, the yeast surface expression in data set [1] was 0.76.
Regarding chain 1 Y32P N35K, the Kd with fluorescein was found to be 0.195 µM. In data set [1], the yeast surface expression is 0.466.
For chain 1 G100F M105D the same measures were ≥ 10 µM and 0.573.
For chain 1 D31T V37W the same measures were 6.61 µM and 0.726.
For chain 1 S101L Y103W Y107W the same measures were ≥ 10 µM and 0.29.
On to chain 1 Y103I G104P G109M, for which the Kd with fluorescein is ≥ 10 µM. Further, the yeast surface expression in data set [1] is 0.279.
For chain 1 V37N the same measures were 0.00309 µM and 0.62.
For chain 1 V37I the same measures were 0.00239 µM and 0.916.

These data come from the FLAb antibody collection (doi:10.7554/elife.23156).
